The values that follow are results of earlier work, collected in publication PMC11969061.

This data set concerns the target BTN3A IgV (Homo sapiens) (UniProt O00481).
UniProt O00481, sequence (O00481 30-139): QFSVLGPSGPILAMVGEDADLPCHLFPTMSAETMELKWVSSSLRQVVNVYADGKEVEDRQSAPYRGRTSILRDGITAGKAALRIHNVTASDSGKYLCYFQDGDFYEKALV

Broadly, the Kd is a measure of binding affinity in units of concentration. BTN2A1 IgV (from UniProt Q7KYR7): the Kd was 600 µM.
